According to patent US20230192860A1 (Bristol-Myers Squibb, published 2023):

How the values were obtained:
[1] = target: T1, monovalent hVISTA-ECD (amino acids 32-193 of SEQ ID NO: 1 with a 7xHis tail) (human, UniProt Q9H7M9 33-193); assay: SPR 37C, pH 7.4 over pH 6.0
T1 construct: analyte of the SPR assays; also called huVISTA-His; human VISTA-ECD
Method: (§1) For this assay, ‘029, ‘761 and ‘767were reformatted as hIgG1f isotype and were expressed as both standard hIgG1f and in hIgG1f afucosylated formats to compare against the hIgG1.3f Fc. An SPR kinetics assay was conducted to measure koff and KD binding affinity measurements for VISTA Abs at acidic and physiological pH using a Biacore® T100 instrument (GE Healthcare). […] Antibodies were diluted to 25 nM in PBST pH 7.4, and were captured across active biosensor flow cells at 5 ul/min for 45 seconds. A concentration series of 1600 - 0.78 nM (pH 7.4) and 100 - 0.78 nM (pH 6.0) monovalent hVISTA-ECD (SEQ ID NO: 325) was prepared running buffer, and was injected over the captured antibodies at 40 ul/min to measure association and dissociation. Two 15 second injections of 10 mM glycine pH 1.5 were used to regenerate the Protein A capture surface between assay cycles. Rate constants ka (kₒₙ) and kd (koff) were derived from reference flow cell and 0 nM blank-subtracted sensorgrams, and were fit to a 1:1 binding model in Biacore® T200 Evaluation Software v.2.0. The affinity constant, KD was calculated as the ratio of rate constants koff/kₒₙ for each VISTA antibody. Ratios of koff and KD at pH 7.4 / pH 6.0 were calculated to compare off-rate and affinity improvement at acidic pH relative to physiological pH.

[2] = target: T1, monovalent hVISTA-ECD (amino acids …); assay: SPR 37C, pH 6.0 over pH 6.0
[3] = target: T1, monovalent hVISTA-ECD (amino acids …); assay: SPR 37C, pH 6.9 over pH 6.0
Method: (§2) Human VISTA binding kinetics of P1-061029 (“ ‘029”), P1-068761 (“ ‘761”) and P1-068767 (“ ‘767”) (as IgG1.3 antibodies) were measured at pH values between pH 7.4 and pH 6.0, i.e., at pH 6.9 and pH 6.45 using a Biacore® T100 instrument (GE Healthcare). […] Antibodies were diluted to 25 nM in PBST pH 7.4, and were captured across active biosensor flow cells at 5 ul/min for 45 seconds. A concentration series of 100 - 0.78 nM monovalent hVISTA-ECD (SEQ ID NO: 325) was prepared pH 7.4, 6.9, 6.45 and 6.0 running buffers, and was injected over the captured antibodies at 40 ul/min to measure association and dissociation. Two 15 second injections of 10 mM glycine pH 1.5 were used to regenerate the Protein A capture surface between assay cycles. Rate constants ka (kₒₙ) and kd (koff) were derived from reference flow cell and 0 nM blank-subtracted sensorgrams, and were fit to a 1:1 binding model in Biacore® T200 Evaluation Software v.2.0. The affinity constant, KD was calculated as the ratio of rate constants koff/kₒₙ for each VISTA antibody. Ratios of koff and KD at each pH relative to pH 6.0 were calculated to evaluate how the VISTA koff and KD change as the buffer pH shifts to physiological, and are shown in Table 7. […] As the buffer pH shifts from acidic to physiological, VISTA koff and KD both weaken for ‘761 and ‘767. Physiological pH data for ‘761 and ‘767 for comparison is referenced from Table 7 and noted with an asterisk (*).

[4] = target: T1, monovalent hVISTA-ECD (amino acids …); assay: SPR 37C, pH 6.45 over pH 6.0
Method: as §2

[5] = target: T2, avidin (ThermoFisher Scientific catalog #21128) (UniProt P02701 25-152); assay: SPR 25C, Ab on Protein A, pH 6 and pH 7.4
T2 construct: pI control protein

[6] = target: T3, BSA (Calbiochem catalog #126593) (UniProt P02769 25-607); assay: SPR 25C, Ab on Protein A, pH 6 and pH 7.4
T3 construct: pI control protein

[7] = target: T1, monovalent hVISTA-ECD (amino acids …); assay: SPR 37C, Ab on Protein A, hVISTA-ECD 100-0.78 nM, pH 6.0
Method: as §1

[8] = target: T1, monovalent hVISTA-ECD (amino acids …); assay: as above; remark: listed apart in the source
Method: as §2

[9] = target: T1, monovalent hVISTA-ECD (amino acids …); assay: SPR 37C, Ab on Protein A, hVISTA-ECD 100-0.78 nM, pH 6.9
Method: as §2

[10] = target: T1, monovalent hVISTA-ECD (amino acids …); assay: SPR 37C, Ab on Protein A, hVISTA-ECD 1600-0.78 nM, pH 7.4
Method: as §1

[11] = target: T1, monovalent hVISTA-ECD (amino acids …); assay: SPR 37C, Ab on Protein A, hVISTA-ECD 100-0.78 nM, pH 6.45
Method: as §2

T1 sequence (Q9H7M9 other isoform, or with tags, fused parts or gaps limits assumed): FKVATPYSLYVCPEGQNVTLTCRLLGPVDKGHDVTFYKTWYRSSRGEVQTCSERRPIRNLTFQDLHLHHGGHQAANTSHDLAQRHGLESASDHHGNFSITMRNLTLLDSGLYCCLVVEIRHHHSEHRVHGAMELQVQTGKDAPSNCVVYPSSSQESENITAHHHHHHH
T3 sequence (P02769 25-607 limits assumed): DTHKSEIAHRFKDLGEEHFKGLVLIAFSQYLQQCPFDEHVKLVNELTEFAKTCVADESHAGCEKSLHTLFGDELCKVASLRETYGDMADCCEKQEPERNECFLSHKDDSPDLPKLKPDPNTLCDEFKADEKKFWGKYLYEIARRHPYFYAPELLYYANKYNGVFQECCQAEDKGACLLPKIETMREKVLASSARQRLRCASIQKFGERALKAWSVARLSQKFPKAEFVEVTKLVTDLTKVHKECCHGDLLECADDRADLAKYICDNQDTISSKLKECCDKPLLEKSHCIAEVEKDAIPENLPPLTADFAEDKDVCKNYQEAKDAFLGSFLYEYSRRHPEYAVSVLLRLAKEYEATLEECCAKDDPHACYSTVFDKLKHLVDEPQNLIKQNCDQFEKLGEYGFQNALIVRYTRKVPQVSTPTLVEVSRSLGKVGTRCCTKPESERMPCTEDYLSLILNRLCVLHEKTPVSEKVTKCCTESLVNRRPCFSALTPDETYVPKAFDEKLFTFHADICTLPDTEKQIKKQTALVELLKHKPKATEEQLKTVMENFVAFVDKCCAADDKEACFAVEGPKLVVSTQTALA
T2 sequence (P02701 25-152 limits assumed): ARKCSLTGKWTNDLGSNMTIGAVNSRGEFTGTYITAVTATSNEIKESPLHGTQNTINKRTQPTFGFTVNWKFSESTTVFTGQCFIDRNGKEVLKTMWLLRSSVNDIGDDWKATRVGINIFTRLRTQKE

B1: P1-061029.IgG1.3 (antibody)
heavy: EVQLVESGGGLVQPGKSLRLSCAASGFTLDDYAMHWVRQAPGKGLEWVSGINWNSANIGYADSVKGRFTISRDNAKNSLYLQMNSLRTEDTALYYCAKVPGYSGGWIDAFDVWGQGTMVTVSSASTKGPSVFPLAPSSKSTSGGTAALGCLVKDYFPEPVTVSWNSGALTSGVHTFPAVLQSSGLYSLSSVVTVPSSSLGTQTYICNVNHKPSNTKVDKRVEPKSCDKTHTCPPCPAPEAEGAPSVFLFPPKPKDTLMISRTPEVTCVVVDVSHEDPEVKFNWYVDGVEVHNAKTKPREEQYNSTYRVVSVLTVLHQDWLNGKEYKCKVSNKALPAPIEKTISKAKGQPREPQVYTLPPSREEMTKNQVSLTCLVKGFYPSDIAVEWESNGQPENNYKTTPPVLDSDGSFFLYSKLTVDKSRWQQGNVFSCSVMHEALHNHYTQKSLSLSPG
light: not shown
notes: IgG1.3; also called P1-061029 (parent); P1-061029-18
With B1 the “KD ratio (7.4/6)” value [1] was 5.8, the “kd ratio (7.4/6)” value [1] was 0.9 and the “KD ratio to pH 6.0” value [2] was 1. The “koff ratio to pH 6.0” value [2] was 1, the “KD ratio to pH 6.0” value [3] was 7.1 and the “koff ratio to pH 6.0” value [3] was 1. The “KD ratio to pH 6.0” value [4] was 2.7, the “koff ratio to pH 6.0” value [4] was 0.7 and the binding result [5] was “no binding (tested: 10 RU; analyte 100-10 nM)”. For the same binder, the binding result [6] was “no binding (tested: 10 RU; analyte 100-10 nM)”, the Kd [7] was 7.2 nM and the koff [7] was 0.0079 s⁻¹. For the same binder, the kon [7] was 1.1e+06 M⁻¹ s⁻¹, the Kd [8] was 2 nM and the koff [8] was 0.0057 s⁻¹. It also gave a kon [8] of 2.9e+06 M⁻¹ s⁻¹, a Kd [9] of 14 nM and a koff [9] of 0.0057 s⁻¹. It also gave a kon [9] of 410000 M⁻¹ s⁻¹, a Kd [10] of 42 nM and a koff [10] of 0.0068 s⁻¹. The kon [10] was 160000 M⁻¹ s⁻¹, the Kd [11] was 5.3 nM and the koff [11] was 0.004 s⁻¹. It also gave a kon [11] of 740000 M⁻¹ s⁻¹.

B2: P1-068761.IgG1.3 (antibody)
heavy: EVQLVESGGGLVQPGKSLRLSCAASGFTLEDEAMHWVRQAPGKGLEWVSGINWNSEEIGYADSVKGRFTISRDNAKNSLYLQMNSLRTEDTALYYCAKVPGYSHGWIDAEDVWGQGTMVTVSSASTKGPSVFPLAPSSKSTSGGTAALGCLVKDYFPEPVTVSWNSGALTSGVHTFPAVLQSSGLYSLSSVVTVPSSSLGTQTYICNVNHKPSNTKVDKRVEPKSCDKTHTCPPCPAPEAEGAPSVFLFPPKPKDTLMISRTPEVTCVVVDVSHEDPEVKFNWYVDGVEVHNAKTKPREEQYNSTYRVVSVLTVLHQDWLNGKEYKCKVSNKALPAPIEKTISKAKGQPREPQVYTLPPSREEMTKNQVSLTCLVKGFYPSDIAVEWESNGQPENNYKTTPPVLDSDGSFFLYSKLTVDKSRWQQGNVFSCSVMHEALHNHYTQKSLSLSPG
light: not shown
notes: IgG1.3; also called P1-068761-20; P1-068761 hIgG1.3f
With B2 the “KD ratio (7.4/6)” value [1] was 2560, the “kd ratio (7.4/6)” value [1] was 26.3 and the “KD ratio to pH 6.0” value [2] was 1. For the same binder, the “koff ratio to pH 6.0” value [2] was 1, the “KD ratio to pH 6.0” value [3] was 170 and the “koff ratio to pH 6.0” value [3] was 13.4. The “KD ratio to pH 6.0” value [4] was 18.4, the “koff ratio to pH 6.0” value [4] was 3.2 and the binding result [5] was “no binding (tested: 10 RU; analyte 100-10 nM)”. The binding result [6] was “no binding (tested: 10 RU; analyte 100-10 nM)”, the Kd [7] was 4.3 nM and the koff [7] was 0.0016 s⁻¹. It also gave a kon [7] of 370000 M⁻¹ s⁻¹, a Kd [8] of 1.1 nM and a koff [8] of 0.00066 s⁻¹. It also gave a kon [8] of 600000 M⁻¹ s⁻¹, a Kd [9] of 190 nM and a koff [9] of 0.0089 s⁻¹. It also gave a kon [9] of 48000 M⁻¹ s⁻¹, a Kd [10] of 11000 nM and a koff [10] of 0.042 s⁻¹. For the same binder, the kon [10] was 3800 M⁻¹ s⁻¹, the Kd [11] was 20 nM and the koff [11] was 0.0021 s⁻¹. It also gave a kon [11] of 110000 M⁻¹ s⁻¹.
